Article PMC6920965, “Plant Polyphenols Inhibit Functional Amyloid and Biofilm Formation in Pseudomonas Strains by Directing Monomers to Off-Pathway Oligomers” (Biomolecules, 2019)

Columns and labels:
[1] = molecular target: FapC-UK4 mutant lacking all three imperfect repeats (∆R1R2R3) (Pseudomonas sp. UK4); assay: SAXS; freshly desalted sample without TCEP; aggregation number (Nagg) by indirect Fourier transformation
[2] = molecular target: FapC-UK4 mutant lacking all three imperfect repeats (∆R1R2R3) (Pseudomonas sp. UK4); assay: SAXS; oligomers formed in the presence of PGG and purified by SEC; Nagg by indirect Fourier transformation; core-shell model
FapC (FapC-UK4) [3] = molecular target: T1, FapC (FapC-UK4) (Pseudomonas fluorescens, UniProt P0DXF5); assay: ThT fibrillation assay of purified FapC; supported by CD, ATR-FTIR, SEC and SAXS of oligomers; assay type: biochemical
T1 construct: His-tagged FapC wt, mature protein (226 residues)

FapC-PAO1 = FapC-PAO1 (Pseudomonas aeruginosa, UniProt Q9I2F0); assay: ThT fibrillation assay ([…] FapC-PAO1, […] polyphenol) and SDS-PAGE; assay type: biochemical
FapC (FapC-UK4) [4] = molecular target: T2, FapC (FapC-UK4) (Pseudomonas fluorescens, UniProt P0DXF5); assay: peptide array and SDS-PAGE blot with NBT staining; supported by ThT fibrillation, SEC and SAXS; assay type: binding
T2 construct: His-tagged FapC wt, 226-residue mature protein without the 24-residue signal peptide
T2 sequence (P0DXF5 25-250): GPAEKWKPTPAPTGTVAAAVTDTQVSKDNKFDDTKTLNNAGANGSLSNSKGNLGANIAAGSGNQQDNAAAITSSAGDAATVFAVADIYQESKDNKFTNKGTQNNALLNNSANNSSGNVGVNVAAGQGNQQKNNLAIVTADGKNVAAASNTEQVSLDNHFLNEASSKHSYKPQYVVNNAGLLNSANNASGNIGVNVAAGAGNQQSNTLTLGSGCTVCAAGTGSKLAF

[5] = molecular target: FapC from Pseudomonas sp. UK4, wild type (Pseudomonas sp. UK4); assay: SAXS; oligomers formed in the presence of baicalein and purified by SEC; Nagg by indirect Fourier transformation; core-shell model
[6] = molecular target: FapC from Pseudomonas sp. UK4, wild type (Pseudomonas sp. UK4); assay: SAXS; oligomers formed in the presence of EGCG and purified by SEC; Nagg by indirect Fourier transformation; core-shell model
[7] = molecular target: FapC from Pseudomonas sp. UK4, wild type (Pseudomonas sp. UK4); assay: SAXS; freshly desalted sample without TCEP; aggregation number (Nagg) by indirect Fourier transformation
[8] = molecular target: FapC from Pseudomonas sp. UK4, wild type (Pseudomonas sp. UK4); assay: SAXS; oligomers formed in the presence of PGG and purified by SEC; Nagg by indirect Fourier transformation; core-shell model

FapC-PAO1, sequence (Q9I2F0 25-340): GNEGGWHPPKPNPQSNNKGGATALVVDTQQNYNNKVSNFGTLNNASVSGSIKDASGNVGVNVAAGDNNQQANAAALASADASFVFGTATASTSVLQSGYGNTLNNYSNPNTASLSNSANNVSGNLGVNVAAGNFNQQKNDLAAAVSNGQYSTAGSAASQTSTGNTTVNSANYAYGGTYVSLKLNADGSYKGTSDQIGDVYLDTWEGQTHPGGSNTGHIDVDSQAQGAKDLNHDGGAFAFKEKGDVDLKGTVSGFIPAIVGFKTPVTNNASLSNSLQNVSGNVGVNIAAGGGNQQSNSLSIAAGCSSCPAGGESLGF

“FapC-UK4 mutant lacking all three imperfect repeats (∆R1R2R3) (domain or fragment)” gave a stoichiometry N [1] of 2.7 and a stoichiometry N [2] of 4.7.

With `O=C(OC[C@H]1O[C@@H](OC(=O)c2cc(O)c(O)c(O)c2)[C@H](OC(=O)c2cc(O)c(O)c(O)c2)[C@@H](OC(=O)c2cc(O)c(O)c(O)c2)[C@@H]1OC(=O)c1cc(O)c(O)c(O)c1)c1cc(O)c(O)c(O)c1` [PGG, penta-O-galloyl-β-D-glucose] the IC50 (FapC (FapC-UK4) [3]) was roughly 26 µM and the “ThT fibrillation assay (30 μM FapC-PAO1, 100 μM polyphenol) and SDS-PAGE” value (“ThT fibrillation assay” below) (FapC-PAO1) was “PGG, EGCG, and baicalein keep FapC monomeric or lead to off-pathway oligomers (Figure 4B)”.

For `O=C(O[C@@H]1Cc2c(O)cc(O)cc2O[C@@H]1c1cc(O)c(O)c(O)c1)c1cc(O)c(O)c(O)c1` [EGCG, epigallocatechin gallate], the “peptide array and SDS-PAGE blot with NBT staining; supported by ThT fibrillation” value (FapC (FapC-UK4) [4]) was “The intensity of EGCG binding varied significantly across the probed peptides (Figure 6C), showing particular affinity for regions” and the “ThT fibrillation assay” value (FapC-PAO1) was “PGG, EGCG, and baicalein keep FapC monomeric or lead to off-pathway oligomers (Figure 4B)”.

In the case of `O=c1cc(-c2ccccc2)oc2cc(O)c(O)c(O)c12` [baicalein], the “ThT fibrillation assay” value (FapC-PAO1) is reported as “PGG, EGCG, and baicalein keep FapC monomeric or lead to off-pathway oligomers (Figure 4B)”.

For “FapC from Pseudomonas sp. UK4, wild type (natural protein)”, the stoichiometry N [5] was 6.7, the stoichiometry N [6] was 6.7 and the stoichiometry N [7] was 4.4. The stoichiometry N [8] was 7.6.
